Experimental data from US6730503B1 (Roche Vitamins Inc., priority 1996, dated 2004).

Columns and labels:
[1] = Substrate specificity of purified enzymes, PMS-DCIP spectrophotometric assay; format: biochemical; conditions: A′ corrected 1.5-fold (purity about 65%)
Description: The enzymatic activity of the AADHs herein can be determined by methods known in the art, such as by photometric analysis using a spectrophotometer. In accordance with the present invention, one unit of enzyme activity was defined as the amount of enzyme which catalyzed the reduction of 1 μmole of DCIP per minute. The extinction coefficient of DCIP at pH 8.0 was taken as 15 mM^−1. In a preferred standard assay for determining the enzyme activity of the AADHs herein, a first cuvette includes a standard reaction mixture (1.0 ml) containing 0.1 mM DCIP, 1 mM PMS, 2 to 125 mM substrate, 50 mM Tris-malate-NaOH buffer (pH 8.0), and 10 μl of the enzyme solution. A second cuvette, i.e., a reference cuvette, contains all the above components except the substrate. The reference cuvette is used to standardize the background absorbance resulting from a substrate-independent (endogenous) reaction. Preferably, a double beam spectrophotometer is used to determine the activity of the enzyme in the presence of a substrate with respect to a standard reaction mixture in the absence of the substrate.
Enzyme activities of each clone (cell free extract, soluble fraction and membrane fraction) were measured by photometric analysis. The cells of each clone were inoculated in 5 ml of MB medium in a test tube and cultivated at 30° C. for 24 hours. The resulting broth was transferred into 200 ml of fresh MB medium in 500 ml flask and the flask was shaken on the rotary flask shaker at 30° C. for 24 hours. The cells were collected by centrifugation at 6,000×g for 10 minutes and washed with 40 ml of cold buffer consisting of 50 mM Tris-HCl, pH 7.5, 5 mM MgCl2 and 0.5 mM phenylmethylsulfonyl fluoride and suspended with the same buffer to prepare cell suspension of 1 g wet cells per 5 ml. The cell suspension was subjected twice to a French press cell disruptor (1,500 kg/cm^2) and the resulting homogenate was centrifuged at 6,000×g for 10 minutes to remove cell debris. Thus obtained cell free extract (CFE) was centrifuged at 100,000×g for 60 minutes. The resulting supernatant and pellet were collected as the cytosol fraction and the membrane fraction, respectively and subjected to PMS-DCIP assay as follows. The enzyme reaction mixture (1.0 ml) contained 100 μM DCIP, 1 mM PMS, 50 mM Tris malate-NaOH buffer, pH 8.0, a substrate and the enzyme (10 μl). Substrate-dependent decreasing rate of absorbance of DCIP at 600 nm was measured at 25° C. by using a Kontron spectrophotometer UVIKON 810. […] In the A-group, there were three types, A, A′ and A″ each of which was distinguished from each other by their physical map of the DNA carried on each plasmid. B- or C-group each consisted of only one type of protein derived from one region of the chromosomal DNA.

[2] = Thermal stability, 5 minutes, residual activity by PMS-DCIP assay; format: physicochemical
Description: Table 4 indicates the results of thermal-stabilities of the enzymes. The enzyme (about 0.05 mg/ml) in 25 mM HEPES buffer, pH 7.5, containing 5% sucrose, 0.2 M NaCl, and 5 mM CaCl2 was incubated at temperature indicated in the table (4-60° C.) for 5 minutes, cooled in ice bath and assayed by PMS-DCIP spectrophotometric method. Remaining activity was expressed as relative activity against that obtained by 4° C. incubation.

[3] = pH stability, 3 hours at 25° C., residual activity by PMS-DCIP assay; format: physicochemical; conditions: relative to no incubation at pH 8.0
Description: Enzymes A, A′, A″ and B were incubated in buffers of various pH-values for 3 hours at 25° C. and the residual activities were assayed and expressed as relative values against that obtained by no incubation at pH 8.
Table 3 indicates the results of pH-stabilities of the enzymes. The enzyme (about 0.01 mg/ml) was incubated with 50 mM buffer containing 5% sucrose, 0.2 M NaCl, and 5 mM CaCl2 at 25° C. for 3 hours and assayed by PMS-DCIP spectrophotometric method. The buffers were Na-acetate, pH4 and 5, Tris-malate-NaOH, pH 6, 7 and 8, glycine-NaOH, pH 9 and 10. The values in the table are expressed as relative activity against that obtained by no incubation at pH 8.0.

[4] = Products of enzyme reactions with purified enzymes, identified by TLC and/or HPLC; format: biochemical
Description: Products formed from a substrate in the reaction with Enzyme A, Enzyme A′, Enzyme A″ or Enzyme B were analyzed by thin layer chromatography (TLC) and/or high performance liquid chromatography (HPLC) with authentic compounds. […] Similarly to the reactivity for L-sorbosone, D-glucosone can be converted to 2KD by all of above mentioned AADHs. A group enzymes can produce 2KD from D-fructose whose possible direct product is D-glucosone. […]
Enzyme reactions with purified Enzyme A or Enzyme B and various substrates were performed as described in Example 11.

[5] = Optimal pH, PMS-DCIP assay in buffers of various pH; format: biochemical
Description: The Enzymes A″ and B have a relatively wide pH range toward a lower pH, compared with the Enzymes A and A′.
The enzyme activity was assayed by the PMS-DCIP spectrophotometric assay using various pH buffers. The buffers were 50 mM Tris-malate-NaOH, pH 6.0, 6.5, 7.0, 7.5, 8.0 and 8.5; 50 mM glycine-NaOH, pH 9.0 and 9.5. The extinction coefficients of DCIP at pH 6.0, 6.5, 7.0, 7.5, 8.0, 8.5, 9.0 and 9.5 were taken as 10.8, 13.2, 14.5, 14.9, 15.0, 15.1, 15.1 and 15.1, respectively. […] The Enzymes A″ and B had relatively wide pH range toward lower pH, compared with the Enzymes A and A′.

Substrate specificity ([1]; 2 mM L-Sorbosone): 5.0 units/mg of purified protein
Substrate specificity ([1]; 50 mM D-Glucose): 0.0 units/mg of purified protein
Substrate specificity ([1]; 50 mM D-Mannitol): 1.3 units/mg of purified protein
Substrate specificity ([1]; 50 mM Isopropanol): 108.9 units/mg of purified protein
Substrate specificity ([1]; 50 mM n-Propanol): 180.7 units/mg of purified protein
Substrate specificity ([1]; 125 mM D-Fructose): 2.9 units/mg of purified protein
Substrate specificity ([1]; 125 mM D-Sorbitol): 7.8 units/mg of purified protein
Substrate specificity ([1]; 125 mM L-Sorbose): 1.6 units/mg of purified protein
Product ([4]; substrate D-Fructose): 2-keto-D-gluconic acid
Product ([4]; substrate D-Mannitol): D-mannose
Product ([4]; substrate D-Sorbitol): D-glucose with L-gulose
Product ([4]; substrate L-Sorbose): L-sorbosone with 2KGA
Product ([4]; substrate L-Sorbosone): 2KGA
B1: Enzyme A′: recombinant AADH of G. oxydans DSM No. 4025, amino acid sequence SEQ ID NO 6, plasmid p1E2 (protein)
chain: MKTSSLLVASVAALASYSSFALAQVTPVTDELLANPPAGEWISYGQNQENYRHSPLTQITTENVGQLQLVWARGMQPGKVQVTPLIHDGVMYLANPGDVIQAIDAKTGDLIWEHRRQLPNIATLNSFGEPTRGMALYGTNVYFVSWDNHLVALDTATGQVTFDVDRGQGEDMVSNSSGPIVANGVIVAGSTCQYSPFGCFVSGHDSATGEELWRNYFIPRAGEEGDETWGNDYEARWMTGVWGQITYDPVGGLVHYGSSAVGPASETQRGTTGGTMYGTNTRFAVRPETGEIVWRHQTLPRDNWDQECTFEMMVANVDVQPAADMDGVRSINPNAATGERRVLTGVPCKTGTMWQFDAETGEFLWARDTSYENIIESIDENGIVTVDESKVLTELDTPYDVCPLLLGGRDWPSAALNPDTGIYFIPLNNTCMDIEAVDQEFSSLDVYNQSLTAKMAPGKELVGRIDAIDISTGRTLWTAEREASNYAPVLSTAGGVLFNGGTDRYFRALSQETGETLWQTRLATVASGQAVSYEIDGVQYIAIGGGGTTYGSFHNRPLAEPVDSTAIGNAMYVFALPQQ
modifications: Gluconobacter oxydans; SIGNAL (1)..(23)
Relative activity (thermal stability) ([2]; 4° C. for 5 minutes (reference)): 100.0%
Relative activity (thermal stability) ([2]; 20° C. for 5 minutes, relative to 4° C. incubation): 100.8%
Relative activity (thermal stability) ([2]; 30° C. for 5 minutes, relative to 4° C. incubation): 103.6%
Relative activity (thermal stability) ([2]; 40° C. for 5 minutes, relative to 4° C. incubation): 78.9%
Relative activity (thermal stability) ([2]; 50° C. for 5 minutes, relative to 4° C. incubation): 0.6%
Relative activity (thermal stability) ([2]; 60° C. for 5 minutes, relative to 4° C. incubation): 0.0%
Relative activity (pH stability) ([3]; incubated at pH 4.0, 3 hours): 0.0%
Relative activity (pH stability) ([3]; incubated at pH 5.0, 3 hours): 10.0%
Relative activity (pH stability) ([3]; incubated at pH 6.0, 3 hours): 82.7%
Relative activity (pH stability) ([3]; incubated at pH 7.0, 3 hours): 96.9%
Relative activity (pH stability) ([3]; incubated at pH 8.0, 3 hours): 100.0%
Relative activity (pH stability) ([3]; incubated at pH 9.0, 3 hours): 97.3%
Relative activity (pH stability) ([3]; incubated at pH 10.0, 3 hours): 85.4%
Relative activity (pH stability) ([3]; incubated at pH 11.0, 3 hours): 61.3%
Relative activity (optimal pH) ([5]; assay pH 6.0, pH 8.0 = 100): 2.1%
Relative activity (optimal pH) ([5]; assay pH 6.5, pH 8.0 = 100): 9.3%
Relative activity (optimal pH) ([5]; assay pH 7.0, pH 8.0 = 100): 22.5%
Relative activity (optimal pH) ([5]; assay pH 7.5, pH 8.0 = 100): 46.8%
Relative activity (optimal pH) ([5]; assay pH 8.0): 100.0%
Relative activity (optimal pH) ([5]; assay pH 8.5, pH 8.0 = 100): 142.7%
Relative activity (optimal pH) ([5]; assay pH 9.0, pH 8.0 = 100): 2.1%
Relative activity (optimal pH) ([5]; assay pH 9.5, pH 8.0 = 100): 1.8%
